Assay results: article PMC8044712 (STAR Protocols, 2021)

Biological target: T1, ΔN100 y-mtRNAP (yeast mitochondrial RNA polymerase lacking the N-terminal 100 residues) (S. cerevisiae, UniProt P13433 101-1351)
T1 sequence (looked up): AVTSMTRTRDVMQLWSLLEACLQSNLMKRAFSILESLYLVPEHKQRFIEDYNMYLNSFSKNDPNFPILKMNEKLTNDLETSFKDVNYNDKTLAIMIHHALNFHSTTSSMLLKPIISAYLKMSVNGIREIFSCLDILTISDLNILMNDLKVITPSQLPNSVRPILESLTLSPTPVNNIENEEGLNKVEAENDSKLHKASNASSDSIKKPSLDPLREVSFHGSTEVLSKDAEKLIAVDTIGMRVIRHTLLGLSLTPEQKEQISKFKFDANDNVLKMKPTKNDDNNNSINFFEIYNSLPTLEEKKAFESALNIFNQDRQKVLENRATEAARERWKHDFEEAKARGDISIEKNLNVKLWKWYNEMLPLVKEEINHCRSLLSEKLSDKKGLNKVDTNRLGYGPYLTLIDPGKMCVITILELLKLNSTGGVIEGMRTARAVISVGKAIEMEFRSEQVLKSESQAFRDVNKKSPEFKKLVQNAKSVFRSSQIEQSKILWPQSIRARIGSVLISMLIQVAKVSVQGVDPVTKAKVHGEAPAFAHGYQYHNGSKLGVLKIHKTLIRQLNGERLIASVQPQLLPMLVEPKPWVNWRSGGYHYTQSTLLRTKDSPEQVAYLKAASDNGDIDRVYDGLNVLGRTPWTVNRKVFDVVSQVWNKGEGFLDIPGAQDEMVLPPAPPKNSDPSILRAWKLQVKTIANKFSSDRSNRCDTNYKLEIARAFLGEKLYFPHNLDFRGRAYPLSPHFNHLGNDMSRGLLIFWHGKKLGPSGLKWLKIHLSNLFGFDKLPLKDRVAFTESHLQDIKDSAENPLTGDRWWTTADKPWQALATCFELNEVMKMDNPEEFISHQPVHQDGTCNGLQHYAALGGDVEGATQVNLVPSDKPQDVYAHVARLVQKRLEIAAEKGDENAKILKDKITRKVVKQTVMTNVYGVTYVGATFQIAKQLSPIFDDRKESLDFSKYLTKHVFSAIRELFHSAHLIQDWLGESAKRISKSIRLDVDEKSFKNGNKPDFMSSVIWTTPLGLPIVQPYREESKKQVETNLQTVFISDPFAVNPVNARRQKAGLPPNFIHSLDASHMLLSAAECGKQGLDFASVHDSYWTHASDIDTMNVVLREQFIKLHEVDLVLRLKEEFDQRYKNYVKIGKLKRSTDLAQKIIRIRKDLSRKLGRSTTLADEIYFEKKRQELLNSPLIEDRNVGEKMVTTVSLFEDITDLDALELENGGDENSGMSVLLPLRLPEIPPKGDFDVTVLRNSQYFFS
Test: cryo-EM structure

- binding result: binds
B1: His-6 tagged MTF1 from S. cerevisiae (mitochondrial transcription initiation factor MTF1) (natural protein)
chain: SVPIPGIKDISKLKFFYGFKYLWNPTVYNKIFDKLDLTKTYKHPEELKVLDLYPGVGIQSAIFYNKYCPRQYSLLEKRSSLYKFLNAKFEGSPLQILKRDPYDWSTYSNLIDEERIFVPEVQSSDHINDKFLTVANVTGEGSEGLIMQWLSCIGNKNWLYRFGKVKMLLWMPSTTARKLLARPGMHSRSKCSVVREAFTDTKLIAISDANELKGFDSQCIEEWDPILFSAAEIWPTKGKPIALVEMDPIDFDFDVDNWDYVTRHLMILKRTPLNTVMDSLGHGGQQYFNSRITDKDLLKKCPIDLTNDEFIYLTKLFMEWPFKPDILMDFVDMYQTEHSG
